Data taken from patent US20230181681A1, “PEPTIDE FOR SUPPRESSING CORONAVIRUS AND USE THEREOF” (priority 2020, published 2023).

Biological target: MERS-CoV N protein (MERS-CoV), K9N4V7

Binder: TGCGTNCMGKLKCNRC (modifications not checked) [Spike CD-F]
- percent inhibition of the interaction between Spike CD-Full and N protein: 40%
